Test results as given in patent publication US20110189154.

T1: Tsa1 (S. cerevisiae 2-Cys peroxyredoxin), P34760
T1 chain: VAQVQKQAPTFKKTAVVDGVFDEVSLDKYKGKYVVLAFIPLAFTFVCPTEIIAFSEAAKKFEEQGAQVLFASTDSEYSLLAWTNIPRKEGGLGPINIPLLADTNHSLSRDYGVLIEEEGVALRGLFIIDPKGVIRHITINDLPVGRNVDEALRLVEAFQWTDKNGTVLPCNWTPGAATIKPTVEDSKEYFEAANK


Biological target: T1, Tsa1 (S. cerevisiae 2-Cys …)

Protein | reduction of the Cys-SO2H form of Tsa1
Srx1^Cys106S (S. cerevisiae Srx1 with Cys106 changed to serine) (protein) MSLQSNSVKPTEIPLSEIRRPLAPVLDPQKIDAMVATMKGIPTASKTCSLEQAEAAASAGELPPVDVLGVRVKGQTLYYAFGGCHRLQAYDRRARETQNAAFPVRSRVLPATPRQIRMYLGSSLDIE | the other cysteine mutants have no effect for Srx1^Cys106S
Srx1^Cys48S (S. cerevisiae Srx1 with Cys48 changed to serine) (protein) MSLQSNSVKPTEIPLSEIRRPLAPVLDPQKIDAMVATMKGIPTASKTSSLEQAEAAASAGELPPVDVLGVRVKGQTLYYAFGGCHRLQAYDRRARETQNAAFPVRCRVLPATPRQIRMYLGSSLDIE | a minor effect for Srx1^Cys48S
